Consider 6 molecules from patent publication US20240398863A1 (ARCE THERAPEUTICS, published 2024).

Residue numbers refer to the chain shown, from its start.

Test [1] deals with Human C-type lectin-like molecule-1 (CLL-1) on cells (human) (UniProt Q5QGZ9). Nature of the test: flow cytometry histogram on Molm13 AML cells. A general note: A flow cytometer gives signals particle by particle.
Test [2] shares this target. Description: flow cytometry dot plot on Molm14 WT cells, CLL-1_APC_A against CD123_BV421_A (D-Q1: 0.14%, D-Q3: 0.28%, D-Q4: 18.03%); in the Molm14 CLL-1KO pool the same quadrant holds D-Q2: 10.47% and D-Q4: 89.48%.
For test [3] the target is unchanged. Description: flow cytometry histogram on U937 AML cells.
For test [4] the target is unchanged. Description: flow cytometry histogram on HL60 AML cells.
Test [5] has the same target. Nature of the test: flow cytometry histogram on Molm14 AML cells; the bold label in the same panel prints 67.1%.
The target is the same in test [6]. Nature of the test: flow cytometry histogram on THP-1 AML cells.
The target of test [7] is T1, Human C-type lectin-like molecule-1 (CLL-1) on cells (human, UniProt Q5QGZ9 1-265).
T1 construct: whole, on cells; also called CLL-1 antigens; MICL
T1 sequence (looked up): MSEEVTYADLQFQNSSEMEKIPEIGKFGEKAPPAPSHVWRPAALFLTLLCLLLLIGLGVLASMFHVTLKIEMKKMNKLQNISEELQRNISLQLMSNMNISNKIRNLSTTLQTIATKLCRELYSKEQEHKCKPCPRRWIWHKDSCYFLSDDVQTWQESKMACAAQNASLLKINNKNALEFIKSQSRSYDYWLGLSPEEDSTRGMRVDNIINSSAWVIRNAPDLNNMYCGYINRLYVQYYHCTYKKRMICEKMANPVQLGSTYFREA
Nature of the test: flow cytometry, overlaid histograms on K562-CLL-1 OFP cells; panel title 'Anti-CLL-1 scFv-Fc Abs_2 nM' (legend paragraph 56 says 0.2 nM); control: 2nd antibody only [B]. How it is done: FIG. 1 illustrates screening of the anti-CLL-1 antibodies disclosed herein by flow cytometry: (A) Representative flow cytometry dot plots. (B) Overlapping histograms. Each scFv-Fc antibody was stained at 0.2 nM with paired K562-CLL-1 and K562 cells, followed by staining with fluorochrome-conjugated 2nd antibody for flow cytometry analysis;
As illustrated in FIGS. 1A-B and 2, purified scFv-Fc antibodies were further assessed by flow cytometry for their binding to CLL-1 antigens of the K562-Luc-CLL-1 transfectant as well as the CLL-1+ AML cell line, U937, MOLM-14 and THP-1. K562 cells, a human erythroleukemic cell line, and Raji-Luc cells, a human B lymphoblastoid cell line, were used as the CLL-1-negative control cell lines. Each scFv-Fc antibody was screened with six cell lines, including K562, K562-CLL-1, U937, MOLM-14, THP-1 and Raji. Although the binding profiles of each clone varied with cell lines tested, the Top 3 clones with stronger binding pattern were selected, and the ranges of binding percentage were 52%˜99% for K562-Luc-CLL-1, 25%˜98% for U937, 6%˜37% for MLOM-14 and 1%-36% for THP-1.

For test [8], the target named is T2, CLL-1-ECD (human, UniProt Q5QGZ9 65-265).
T2 construct: extracellular domain; also called CLL-1-ECD antigen
T2 sequence (looked up): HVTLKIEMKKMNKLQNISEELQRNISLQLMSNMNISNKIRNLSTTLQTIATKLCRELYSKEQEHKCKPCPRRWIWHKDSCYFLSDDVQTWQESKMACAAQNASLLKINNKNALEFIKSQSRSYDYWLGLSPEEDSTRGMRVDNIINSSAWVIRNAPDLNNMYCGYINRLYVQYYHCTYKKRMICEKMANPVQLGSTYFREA
Nature of the test: AlphaLISA; column head 'Affinity: Kd (M) by AlphaLISA'. The procedure: (§1) In order to characterize the antigen binding capacities of anti-CLL-1 scFv-Fc antibodies, an AlphaLISA sandwich assay was set up with Anti-6×His Acceptor beads, Protein A Donor beads, and CLL-1-ECD. By AlphaLISA assay, the Kd values of each anti-CLL-1 scFv-Fc antibody were determined.
In general terms: Alpha assays give light when donor and acceptor beads are brought close together.

The target in test [9] is T2, CLL-1-ECD. Nature of the test: AlphaLISA sandwich assay with Anti-6xHis Acceptor beads, Protein A Donor beads and CLL-1-ECD. The procedure:
as §1

For test [10], the target named is T2, CLL-1-ECD. Nature of the test: AlphaLISA; column head 'Affinity: Kd (M) by AlphaLISA'; clone printed as 56D01, FIG. 3A on the same sheet prints 65D01. How it is done:
as §1

Take “anti-human CLL-1-APC antibody (clone REA431)”: the % positive cells (gate D) came to 21.6% in [1]; 99.3% in [3]; 74.4% in test [4]; 67.6% in test [5]; 71% in test [6]. Also, in [2], the % cells in quadrant D-Q2 (CLL-1 APC+ CD123 BV421+) was 81.5%.

B1: 59A09 (Fc fusion)
VH: EVQLVESGGGLVQPGGSLRLSCAASGFTFTDYYIHWVRQAPGKGLEWVSMISPSGGGEAYYADSVKGRFTISRDNSKNTLYLQMNSLRAEDTAVYYCARAHDFDDFDYWGQGTLVTVSS
VL: DIQMTQSPSSLSASVGDRVTITCRASQSIRYSLAWYQQKPGKASKLLIYDASTLQSGVPSRFSGSGSGTDFTLTISSLQPEDFATYYCQQYNNSPLTFGQGTKVEIK
notes: anti-CLL-1 scFv-Fc clone; also called anti-CLL-1-59A09; K562-CLL-1 OFP 59A09
Regarding B1, the binding result in [7] is recorded as “binds”.

B2: 61A07 (Fc fusion)
VH: EVQLVESGGGLVQPGGSLRLSCAASGFTFSNHWMHWVRQAPGKGLEWVSSISGAGGGKSYADSVKGRFTISRDNSKNTLYLQMNSLRAEDTAVYYCARDESSYAYDGDYWGQGTLVTVSS
VL: B1 VL with S26N, Y31N, S32Y, A34N, S44P, D50A, Y91N, N92T, N93S, L96S
notes: anti-CLL-1 scFv-Fc clone; also called anti-CLL-1-61A07; K562-CLL-1 OFP 61A07
On to B2, for which the binding result in test [7] is given as “binds”.

B3: anti-CLL-1 scFv-Fc antibody 61H08 (Fc fusion)
VH: EVQLVESGGGLVQPGGSLRLSCAASGFTFDDYGMHWVRQAPGKGLEWVSGIWPSGGNKEYADSVKGRFTISRDNSKNTLYLQMNSLRAEDTAVYYCARLLALTYDYFDYWGQGTLVTVSS
VL: DIQMTQSPSSLSASVGDRVTITCRASQGISSYLAWYQQKPGKAPKLLIYDASTLQSGVPSRFSGSGSGTDFTLTISSLQPEDFATYYCQQSYSTPFTFGQGTKVEIKR
notes: also called anti-CLL-1-61H08
For orientation: Kd means the free concentration of one partner at which half of the binding sites on the other are occupied at equilibrium, for simple one-to-one binding. B3 returned a Kd with CLL-1-ECD [8] of 4.9 nM.

B4: anti-CLL-1 scFv-Fc antibody 72C10 (Fc fusion)
VH: EVQLVESGGGLVQPGGSLRLSCAASGFTFSVNAMHWVRQAPGKGLEWVSTISGSDGHKYYADSVKSRFTISRDNSKNTLYLQMNSLRAEDTAVYYCARDVDSEIGDGYHEDIWGQGTLVTVSS
VL: DIQMTQSPSSLSASVGDRVTITCRASQSVTNALNWYQQKPGKAPKLLIYAASNLQSGVPSRFSGSGSGTDFTLTISSLQPEDFATYYCQQTNNSPATFGQGTKVEIKR
notes: also called anti-CLL-1-72C10
The term EC50 (read off the curve) denotes the midpoint of the concentration-response curve. A higher EC50 (read off the curve) goes with a need for much substance. On to B4, for which the Kd with CLL-1-ECD [8] was 1.1 nM. In the test with CLL-1-ECD [9], the “EC50 (read off the curve)” value was about 1 nM.

B5: anti-CLL-1 scFv-Fc antibody 65D01 (Fc fusion)
VH: QVQLQQWGAGLLKPSETLSLTCAVYGGSFSGYYWSWIRQPPGKGLEWIGEINHSGSTNYNPSLKSRVTISVDTSKNQFSLKLSSVTAADTAAYYCARSPLQWLDDAFDIWGQGTMVTVSS
VL: QSVLTQPPSVSAAPGQRVTISCSGSSSNIGSNYVSWYQQLPGTAPKLLIYDNNERPSGIPDRFSGSKSATSATLDITGLQTGDEADYFCGTWDNSPSTDWVFGGGTKVTVLG
notes: also called anti-CLL-1-65D01
B5 yielded a Kd with CLL-1-ECD [10] of 2.8 nM.
